# Results reported in US20140363428A1 (Chugai, published 2014).
# Residue numbers refer to the chain shown, from its start.
# B1: F1670 (antibody)
# heavy: QVQLQESGPGLVKPSETLSLTCAVSGHSISHDHAWSWVRQPPGEGLEWIGFISYSGITNYNPSLQGRVTISRDNSKNTLYLQMNSLRAEDTAVYYCARSLARTTAMDYWGEGTLVTVSSASTKGPSVFPLAPSSKSTSGGTAALGCLVKDYFPEPVTVSWNSGALTSGVHTFPAVLQSSGLYSLSSVVTVPSSSLGTQTYICNVNHKPSNTKVDKKVEPKSCDKTHTCPPCPAPELRGGPKVFLFPPKPKDTLMISRTPEVTCVVVDVSHEDPEVKFNWYVDGVEVHNAKTKPREEQYNSTYRVVSVLTVLHQDWLNGKEYKCKVSNKALPAPIEKTISKAKGQPREPQVYTLPPSRDELTKNQVSLTCLVKGFYPSDIAVEWESNGQPENNYKTTPPVLDSDGSFFLYSKLTVDKSRWQQGNVFSCSVMHEALHYHVTRKELSLSP
# light: DIQMTQSPSSLSASVGDSVTITCQASTDISSHLNWYQQKPGKAPELLIYYGSHLLSGVPSRFSGSGSGTDFTFTISSLEAEDAATYYCGQGNRLPYTFGQGTKVEIERTVAAPSVFIFPPSDEQLKSGTASVVCLLNNFYPREAKVQWKVDNALQSGNSQESVTEQDSKDSTYSLSSTLTLSKADYEKHKVYACEVTHQGLSSPVTKSFNRGEC
# B2: F1681 (antibody)
# heavy: B1 heavy with V438T
# light: B1 light
# B3: F1712 (antibody)
# heavy: B1 heavy with R440K
# light: B1 light
# B4: F1750 (antibody)
# heavy: B1 heavy with V438T, R440K
# light: B1 light
# B5: F1716 (antibody)
# heavy: B1 heavy with H435D, R440K
# light: B1 light
# B6: F1725 (antibody)
# heavy: B1 heavy with R237L, K241S, H435D, R440K, E442D
# light: B1 light
# B7: F1715 (antibody)
# heavy: B1 heavy with H435D, E442D
# light: B1 light
# B8: F1723 (antibody)
# heavy: B1 heavy with R237L, K241S, H435D, E442D
# light: B1 light
# B9: F1683 (antibody)
# heavy: B1 heavy with V438F
# light: B1 light
# B10: F1675 (antibody)
# heavy: B1 heavy with H435D, R440Q, E442S
# light: B1 light
# B11: F1749 (antibody)
# heavy: B1 heavy with V438T, E442D
# light: B1 light
# B12: F1714 (antibody)
# heavy: B1 heavy with H435D
# light: B1 light
# B13: F1720 (antibody)
# heavy: B1 heavy with R237L, K241S, R440K
# light: B1 light
# B14: F1719 (antibody)
# heavy: B1 heavy with R237L, K241S, E442D
# light: B1 light
# B15: F1718 (antibody)
# heavy: B1 heavy with R237L, K241S
# light: B1 light
# notes: S440F as printed
# B16: F1724 (antibody)
# heavy: B1 heavy with R237L, K241S, H435D, R440K
# light: B1 light
# B17: Fv-4-F1066 (antibody, human IgG1, kappa)
# heavy: B1 heavy with R237L, K241S, M254Y, V424S, R440Q, E442S
# light: B1 light
# B18: Fv-4-F1067 (antibody, human IgG1, kappa)
# heavy: B1 heavy with R237L, K241S, M254Y, S426E, R440Q, E442S
# light: B1 light
# B19: Fv-4-F1122 (antibody, human IgG1, kappa)
# heavy: B1 heavy with R237L, K241S, T252V, M254Y, T309Q, V310P, Q313A, E442S
# light: B1 light
# B20: Fv-4-F1106 (antibody)
# heavy: B1 heavy with R237L, K241S, M254Y
# light: B1 light
# B21: Fv-4-F1231 (antibody)
# heavy: B1 heavy with R237L, K241S, M254Y, R440K
# light: B1 light
# B22: Fv-4-F1104 (antibody, human IgG1, kappa)
# heavy: B1 heavy with R237L, K241S, M254Y, V424E, S426R, R440Q, E442S
# light: B1 light
# B23: Fv-4-F1107 (antibody, human IgG1, kappa)
# heavy: B1 heavy with R237L, K241S, M254Y, V424D, R440Q, E442S
# light: B1 light
# B24: Fv-4-F1069 (antibody, human IgG1, kappa)
# heavy: B1 heavy with R237L, K241S, M254Y, R440E, E442S
# light: B1 light
# B25: Fv-4-F1120 (antibody, human IgG1, kappa)
# heavy: B1 heavy with R237L, K241S, T252V, M254Y, T309Q, V310P, Q313A, S426R, R440Q, E442S
# light: B1 light
# B26: Fv-4-F1232 (antibody)
# heavy: B1 heavy with R237L, K241S, M254Y, R440K, E442D
# light: B1 light
# B27: Fv-4-F1108 (antibody, human IgG1, kappa)
# heavy: B1 heavy with R237L, K241S, M254Y, V424K, R440Q, E442S
# light: B1 light
# B28: Fv-4-F1112 (antibody, human IgG1, kappa)
# heavy: B1 heavy with R237L, K241S, M254Y, R440K, E442S
# light: B1 light
# B29: Fv-4-F1070 (antibody, human IgG1, kappa)
# heavy: B1 heavy with R237L, K241S, M254Y, E442S
# light: B1 light
# B30: Fv-4-F1073 (antibody)
# heavy: B1 heavy with R237L, K241S, M254Y, R440Q, E442R
# light: B1 light
# B31: Fv-4-F1071 (antibody, human IgG1, kappa)
# heavy: B1 heavy with R237L, K241S, M254Y, R440S, E442S
# light: B1 light
# B32: Fv-4-F1110 (antibody, human IgG1, kappa)
# heavy: B1 heavy with R237L, K241S, M254Y, V424Q, R440Q, E442S
# light: B1 light
# B33: Fv-4-F1123 (antibody)
# heavy: B1 heavy with R237L, K241S, T252V, M254Y, T309Q, V310P, Q313A, R440Q
# light: B1 light
# B34: Fv-4-F1068 (antibody, human IgG1, kappa)
# heavy: B1 heavy with R237L, K241S, M254Y, S426R, R440Q, E442S
# light: B1 light
# B35: Fv-4-F1109 (antibody, human IgG1, kappa)
# heavy: B1 heavy with R237L, K241S, M254Y, V424T, R440Q, E442S
# light: B1 light
# B36: Fv-4-F1065 (antibody, human IgG1, kappa)
# heavy: B1 heavy with R237L, K241S, M254Y, V424R, R440Q, E442S
# light: B1 light
# B37: Fv-4-F1072 (antibody)
# heavy: B1 heavy with R237L, K241S, M254Y, R440Q
# light: B1 light
# B38: Fv-4-F1105 (antibody, human IgG1, kappa)
# heavy: B1 heavy with R237L, K241S, M254Y, V424S, S426R, R440Q, E442S
# light: B1 light
# B39: Fv-4-F1230 (antibody)
# heavy: B1 heavy with R237L, K241S, M254Y, E442D
# light: B1 light
# B40: Fv-4-F1111 (antibody, human IgG1, kappa)
# heavy: B1 heavy with R237L, K241S, M254Y, S426K, R440Q, E442S
# light: B1 light
# B41: Fv-4-F1119 (antibody, human IgG1, kappa)
# heavy: B1 heavy with R237L, K241S, T252V, M254Y, T309Q, V310P, Q313A, V424E, R440Q, E442S
# light: B1 light
# B42: Fv-4-F1121 (antibody, human IgG1, kappa)
# heavy: QVQLQESGPGLVKPSETLSLTCAVSGHSISHDHAWSWVRQPPGEGLEWIGFISYSGITNYNPSLQGRVTISRDNSKNTLYLQMNSLRAEDTAVYYCARSLARTTAMDYWGEGTLVTVSSASTKGPSVFPLAPSSKSTSGGTAALGCLVKDYFPEPVTVSWNSGALTSGVHTFPAVLQSSGLYSLSSVVTVPSSSLGTQTYICNVNHKPSNTKVDKKVEPKSCDKTHTCPPCPAPELLGGPSVFLFPPKPKDVLYISRTPEVTCVVVDVSHEDPEVKFNWYVDGVEVHNAKTKPREEQYNSTYRVVSVLQPLHADWLNGKEYKCKVSNKALPAPIEKTISKAKGQPREPQVYTLPPSRDELTKNQVSLTCLVKGFYPSDIAVEWESNGQPENNYKTTPPVLDSDGSFFLYSKLTVDKSRWQQGNEFRCSVMHEALHYHVTQKSLSLSP
# light: B1 light
# B43: Fv-4-F1124 (antibody)
# heavy: B42 heavy with E424V, R426S, Q440R, S442E
# light: B1 light
# B44: Fv-4-F1114 (antibody)
# heavy: B1 heavy with R237L, K241S, M254Y, R440Q, E442Q
# light: B1 light
# B45: Fv-4-F1113 (antibody)
# heavy: B1 heavy with R237L, K241S, M254Y, R440Q, E442D
# light: B1 light
# Molecular target: T1, soluble human FcRn (human, UniProt P55899 24-297; P61769 21-119)
# T1 construct: Heterodimer of alpha chain and beta2-microglobulin; also called hFcRn
# T1 sequence (P55899 24-297 limits assumed, chain 1 of 2): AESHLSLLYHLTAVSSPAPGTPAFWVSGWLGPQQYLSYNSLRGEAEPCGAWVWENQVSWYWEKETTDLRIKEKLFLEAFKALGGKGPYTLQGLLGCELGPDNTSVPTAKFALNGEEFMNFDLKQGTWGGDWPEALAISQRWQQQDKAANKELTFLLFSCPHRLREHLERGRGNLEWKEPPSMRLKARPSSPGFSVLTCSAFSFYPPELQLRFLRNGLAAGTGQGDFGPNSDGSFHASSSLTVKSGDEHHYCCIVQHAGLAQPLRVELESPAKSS
# T1 sequence (P61769 21-119 limits assumed, chain 2 of 2): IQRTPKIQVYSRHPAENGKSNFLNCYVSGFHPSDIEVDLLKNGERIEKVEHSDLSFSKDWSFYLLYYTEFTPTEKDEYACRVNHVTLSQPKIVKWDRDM
# Test: SPR (Biacore), pH 6.0
row,Binder,Kd [nM]
1,B1,64
2,B2,84
3,B3,55
4,B4,70
5,B5,96
6,B6,93
7,B7,110
8,B8,96
9,B9,57
10,B10,97
11,B11,87
12,B12,110
13,B13,45
14,B14,52
15,B15,61
16,B16,99

# Molecular target: T1, soluble human FcRn
# Test: SPR (Biacore), pH 7.0
row,Binder,Kd [nM]
1,B17,140
2,B18,130
3,B19,14
4,B20,140
5,B21,97.3
6,B22,180
7,B23,120
8,B24,140
9,B25,10
10,B26,97.9
11,B27,130
12,B28,120
13,B29,170
14,B30,134
15,B31,120
16,B32,130
17,B33,9.5
18,B34,170
19,B35,130
20,B36,140
21,B37,130
22,B38,150
23,B39,112
24,B40,160
25,B41,10
26,B42,10
27,B43,12
28,B44,130
29,B45,120
